Tests used:
[1] = target: recombinant HC1 (rHC1), wild type; heavy chain 1 of inter-α-inhibitor (human) (UniProt P19827); test: SPR
[2] = target: complement C3; test: SPR

Chain of recombinant HC1 (rHC1), wild type; heavy chain 1 of inter-α-inhibitor (human) (P19827 35-672): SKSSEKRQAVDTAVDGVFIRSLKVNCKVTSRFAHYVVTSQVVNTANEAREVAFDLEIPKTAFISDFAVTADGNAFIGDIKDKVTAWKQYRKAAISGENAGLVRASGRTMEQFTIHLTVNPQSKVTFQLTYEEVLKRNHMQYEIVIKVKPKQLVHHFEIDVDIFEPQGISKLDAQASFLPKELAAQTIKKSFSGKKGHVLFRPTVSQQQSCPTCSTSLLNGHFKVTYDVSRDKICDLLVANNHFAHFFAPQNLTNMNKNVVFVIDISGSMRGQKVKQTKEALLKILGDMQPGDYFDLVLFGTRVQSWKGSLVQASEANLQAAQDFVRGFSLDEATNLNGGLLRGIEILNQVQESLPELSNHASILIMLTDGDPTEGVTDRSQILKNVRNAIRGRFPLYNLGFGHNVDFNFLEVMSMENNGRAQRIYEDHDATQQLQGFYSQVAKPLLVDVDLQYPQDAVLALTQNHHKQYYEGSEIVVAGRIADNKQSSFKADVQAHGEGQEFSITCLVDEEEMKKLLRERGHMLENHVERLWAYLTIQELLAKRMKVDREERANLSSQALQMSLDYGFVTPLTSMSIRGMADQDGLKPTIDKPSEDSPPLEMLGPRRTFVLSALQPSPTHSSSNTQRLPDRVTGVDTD

Substance	Kd [1]	Kd [2]
TGFβ3-LAP (small latent complex of TGFβ3) (from UniProt P10600 24-300)	10 nM	
inter-α-inhibitor (IαI) (from UniProt P19827 35-672; P19823 55-702) (complex)		660 nM

Second part, the substance after the results:

Kd [1]	Kd [2]	Substance
2 nM		LAP (latency-associated peptide from TGFβ1) (domain or fragment)
10 nM		TGFβ1-LAP (small latent complex of TGFβ1) (from UniProt P01137 30-278)
10 nM		TGFβ2-LAP (small latent complex of TGFβ2) (from UniProt P61812 21-302)
